In patent US20160222458A1 (AGENCY FOR SCIENCE TECHNOLOGY AND RESEARCH, published 2016):

Molecular target: T1, Aurora kinase A (AURKA) (UniProt O14965 1-403)
T1 construct: also called AURKA-A; STK6
T1 sequence (looked up): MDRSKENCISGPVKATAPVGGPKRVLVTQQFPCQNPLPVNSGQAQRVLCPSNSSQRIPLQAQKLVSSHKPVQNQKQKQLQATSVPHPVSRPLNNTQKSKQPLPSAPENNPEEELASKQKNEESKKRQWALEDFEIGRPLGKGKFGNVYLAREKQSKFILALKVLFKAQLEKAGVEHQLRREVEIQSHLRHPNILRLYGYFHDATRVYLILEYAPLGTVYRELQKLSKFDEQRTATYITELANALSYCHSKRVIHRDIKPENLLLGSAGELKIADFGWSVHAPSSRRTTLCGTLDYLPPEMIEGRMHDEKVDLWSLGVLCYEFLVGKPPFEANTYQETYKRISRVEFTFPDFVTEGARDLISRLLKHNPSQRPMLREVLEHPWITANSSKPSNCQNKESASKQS
Assay: co-immunoprecipitation from MDA-MB-436 lysate with anti-PRR11 antibody on CNBr sepharose, Western blot
Text: Pelleted cells were lysed using lysis buffer (commercial Bio-Rad) and estimated proteins (Bio-Rad protein assay) and loaded equal amount of protein and separated by SDS-PAGE [28-30]. After transfer, the membranes were probed with commercial rabbit polyclonal antibodies of Actin, C6orf173, AURKA, MELK and PRR11 (Cell sciences, Sigma Aldrich). Commercial mouse monoclonal antibody available for BRRN1 was obtained from Cell Signalling. Commercial rabbit polyclonal antibody of E2F1 obtained from Thermo Scientific. B-Actin (cell signalling) was used as internal control to relatively compare the expression levels of 6-TAGs genes. Secondary antibodies (anti-rabbit and anti-mouse IgG horseradish peroxidase-conjugated) were purchased from GE Healthcare Bio-Sciences AB. Proteins were visualized using an enhanced chemiluminescence (ECL) reagent kit (GE Healthcare Bio-Sciences AB). Densitometry analysis of Western Blot images was done using ImageJ open source software.
For the immunoprecipiation 5 ug of the antibodies (rabbit anti-PRR11 and mouse anti-BRRN1) were coupled to the CN-Br sepharose 4 Fast Flow according manufacturer protocol (GE Healthcare Bio-Sciences AB) and such supports were used to capture the corresponding proteins from the NP40 cell lysates (usually 1×10^7 MDA-MB-436 cells were used for one probe). […]

- binding result: no binding
B1: Proline rich 11 (PRR11/FLJ11029) (other, UniProt Q96HE9 1-360, looked up)
chain: MPKFKQRRRKLKAKAERLFKKKEASHFQSKLITPPPPPPSPERVGISSIDISQSRSWLTSSWNFNFPNIRDAIKLWTNRVWSIYSWCQNCITQSLEVLKDTIFPSRICHRELYSVKQQFCILESKLCKLQEALKTISESSSCPSCGQTCHMSGKLTNVPACVLITPGDSKAVLPPTLPQPASHFPPPPPPPPLPPPPPPLAPVLLRKPSLAKALQAGPLKKDGPMQITVKDLLTVKLKKTQSLDEKRKLIPSPKARNPLVTVSDLQHVTLKPNSKVLSTRVTNVLITPGKSQMDLRKLLRKVDVERSPGGTPLTNKENMETGTGLTPVMTQALRRKFQLAHPRSPTPTLPLSTSSFDEQN
notes: also called endogenous PRR11
